Measured values as given in patent US20220251233A1 (VERSEAU THERAPEUTICS, published 2022).
Numbering of substitutions follows the chain as printed.

T1: Human CD53-CHO (full-length human CD53 over-expressed on CHO-K1 cells) (human, UniProt P19397 1-219)
T1 construct: Tetraspanin cell-surface antigen
T1 sequence: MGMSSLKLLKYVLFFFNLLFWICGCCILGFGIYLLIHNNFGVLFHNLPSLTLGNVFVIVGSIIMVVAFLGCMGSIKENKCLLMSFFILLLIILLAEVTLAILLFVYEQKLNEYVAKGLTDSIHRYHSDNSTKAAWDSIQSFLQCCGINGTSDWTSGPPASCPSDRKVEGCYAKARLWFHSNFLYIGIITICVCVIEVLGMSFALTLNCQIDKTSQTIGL

B1: 10N22 (antibody, V domains shown)
VH: EVQLQQSGPELVKPGASVKISCKASGYTFTGYFMNWVKQSHGKSLEWIGDLNPNNGGTNFNQRFKGKATLTVDKSSSTAYMELRSLTSEDSAVYYCARDGYDGGYAMDYWGQGTSVTVSS
VL: DVLMTQTPLSLPVSLGDQASISCRSSQNIVHSSGNTYLEWYLQKPGQSPKLLIFKVSNRFSGVPDRFSGSGSGTDFTLKISRVEAEDLGVYYCFQGSHVPYTFGGGTKLEIK
notes: Murine anti-human CD53 mAb purified from subcloned hybridoma; detected with anti-mouse IgG
B2: 4B19 (antibody, V domains shown)
VH: QVQLQQSGTELMKPGASVKLSCKATGYTFTGYWIEWVKQRPGHGLEWIGEILPGSYSTNYNEKFKGKATFTADSSSNTAYMQLSSLTTEDSAIYYCTRDSNYEWFDVWGTGTTVTVSS
VL: DVVMTQTPLSLSVTIGQPASISCKSSQSLLHRDGETYLNWLLQRPGQSPKLLIYLVSKLESGIPDRFSGSGSGTDFTLKISRVEVEDLGVYYCLQHTHFPYTFGSGTKLEIK
notes: as for B1
B3: 10J06 (antibody, V domains shown)
VH: QVQLQQPGAELVKPGASVKLSCKASGYTFTSYWMHWVKQRPGQGLEWIGMIHPNSGSSNHNGKFRGKATLTVDKSSSTAYIQLSSLTSEDSAVYYCARDDYAETMDYWGQGTSVTVSS
VL: DVVMTQTPLSLSITIGQPASISCKSSQSLLYSDGKTYLNWFQQRPGQSPKRLMYQVSKLDPGIPDRFSGSGSETDFTLKISRVEAEDLGVYYCLQGTYYPWTFGGGTKLEIK
notes: as for B1
B4: 9J08 (antibody, V domains shown)
VH: QVQLQQPGAELVKPGASVKLSCKASGYTFTSCWMHWVKQRPGQGLEWIGMIHPNGYSSNYNGKFKNKATLTIDNSSGTAYMQLSGLTSEDSAVYYCARDDYAETMDYWGQGTSVTVSS
VL: B3 VL with I13V, F41L, K79R
notes: as for B1
B5: 6J17 (antibody, V domains shown)
VH: EVQLQQSGAELVRPGASVKLSCTASGFNIKDDYMHWVRQRPKQGLEWIGRVDPANGNTKYAPKFQDKATMTADTSSNTAYLRLSSLTSEDTAVYYCAGYFYYSHDGGFACWGQGTLVTVSA
VL: DIVMTQGSPSIPVTPGESVSISCRSSKSLLHRNGNIYLYWFLQRPGQSPQRLIYYMSNLASGVPDRFSGRGSGTDFTLRISRVEAEDVGVYYCMQGLEYPFTFGTGTKLEIK
notes: as for B1
B6: 5G03 (antibody, V domains shown)
VH: EVQLQQSGAELVRPGASVKLSCTASGFNIKDDFMHWVRQRPDQGLEYIGRFDPAIGNAKYAPKFQDKATLTADTSSNTAYLHLSSLTSEDTAVYYCAIFYAYWGQGTLVTVSA
VL: DVVMTQTPLSLPVSLGDQASISCRSSQSLVHSNRNTYLHWYLQKPGQSPKLLIYKVSNRFSGVPDRFSGSGSGTDFTLKISRVEAEDLGVYFCSQSTHVPFTFGSGTKLEIK
notes: as for B1
B7: 4N19 (antibody, V domains shown)
VH: EVQLQQSVAELVRPGASVKLSCTASGFSIKNTYMHWVKQRPEQGLEWIGRIDPANGYTQHAPKFQGKATIITDTSSNTAYLQLSSLTSEDTAIYYCAGGGPYYAMDYWGQGTSVTVSS
VL: DIVMTQAAPSVPVTPGESVSISCRSSKSLLHSNGDTYLYWFLQRPGQSPQLLIYRMSNLASGVPDRFSGSGSGTAFTLRISRVEAEDVGVYYCMQHLEYPFTFGAGTKLELK
notes: as for B1
B8: 5M13 (antibody, V domains shown)
VH: EVQLQQSVAELVRPGASVKLSCTASGFNIKNTYMHWVKQRPEQGLEWIGRLDPANGYTQSAPKFQGKATVTADTSSNTAYLHLSSLTSEDTAIYYCLYGNYYYAMAYWGQGTSVTVSS
VL: B7 VL with I2V, V11I, F101Y, A105G, L111I
notes: as for B1
B9: 6M01 (antibody, V domains shown)
VH: EVLLQQSVADLVRPGASVKLSCTASGFNIKNTYMHWVSQRPEQGLEWIGRIDPANGYTQCAPSFQGKATITADTSSNTAYLHLSSLSSEDPAIYYCAGGSYYSAMDYWGQGTSVTVSS
VL: B7 VL with V11L, A105S, L111I
notes: as for B1
B10: 5K03 (antibody, V domains shown)
VH: EVQLQQSVAELVRPGASVKLSCTTSGFNIKNTYMHWVKQRPEQGLEWIGRIDPANGYTECAPKFQGKATITADTSSNTAYLQLSSLTSEDTAIYYCTRSGEDYAMDYWGQGTSVTVSS
VL: B7 VL with T14I, S26R, S32R, L51V, F101Y, A105G, L111I
notes: as for B1
B11: 6K14 (antibody, V domains shown)
VH: EVQLQQSGADLVRPGASVKLSCTASGFNIKDDYIHWVKQRPVQGLEWIGRIDPANGNTKYAPMFRGKATITADTSSNTAYLQLSSLTSEDTAVYYCARSGTGAMDYWGQGTSVTVSS
VL: B7 VL with P12F, L38F, G73T, Y99F, F101L
notes: as for B1
B12: 10F09 (antibody, V domains shown)
VH: EVQLQQSVAELVRPGASVKLSCTASGFNIKNTYMHWVKQRPAQGLEWIGKIDPANGFTKHAPRFQGKATITSDTSSNTAYLQLSSLTSEDTAIYYCASGWDAAFAYWGQGTLVTVSA
VL: B7 VL with N58K, Y99H, F101L
notes: as for B1
B13: 2M05 (antibody, V domains shown)
VH: EVQLQQSVAELVRPGASVKLSCTTSGFNIKDTYMHWVKQRPEQGLEWIGRIDPANGHTKYAPKFQDKATIAADTSSNTAYLQLSSLTSEDTAIYYCACGWDAAFAFWGQGTLVTVSA
VL: B7 VL with S26G, V90I, M94L, Y99F, F101L
notes: as for B1
B14: 10H16 (antibody, V domains shown)
VH: EVQLQQSGAELVRPGASVKLSCTVSGFNIKDDFMNWVRQRPEQGLEWIGRIDPENGNTKYAPKFQDKATITADTSSNTAHLHLSSLTSEDTAVYFCARWIPPYWGQGTLVTVSA
VL: B7 VL with P12H, V19A, V63A, H96L, F101Y, A105G, L111I
notes: as for B1
B15: 5K16 (antibody, V domains shown)
VH: EVQLQQSVAELVRPGASVKLSCTASGFNIKNTYMYWVKQRPEQGLEWIGRIDPANGHTKCAPKFQGKATITADTSSNTAYLQLSSLTSEDSAIFYCARGEDYAMDYWGQGTSVTVSS
VL: B7 VL with A7S, L51V, H96L, A105S, L111I
notes: as for B1
B16: 2M22 (antibody, V domains shown)
VH: EGQLQQSGSELVRPGASVKLSCTASGFNIKDDYVHWVKKRPEQGLEWIGRIDPANGYSHYVPKFHDKATITADTSSNTAYLQLNSLTSDDTAVYYCASGSGSYAMDYWGQGTSVTVSS
VL: B7 VL with D1E, L59V, A85T, Y99S, F101Y, A105G, L111I
notes: as for B1
B17: 5F16 (antibody, V domains shown)
VH: B11 VH with D10E, K30E, I34V, V42E, T58I, M63K, R65Q, G66D, T78I, S88A
VL: B7 VL with L38F, Y99F, F101L, A105V
notes: as for B1
B18: 1L17 (antibody, V domains shown)
VH: B7 VH with S28N, G49A, T58S, H60Y, I71T, T72A, Y94F, G100S, P101T, Y103S
VL: B7 VL with A105G, L111I
notes: as for B1
B19: 4O24 (antibody, V domains shown)
VH: B12 VH with G26A, F57Y, H60Y, G66D, S72A, W100R, L112Q
VL: B7 VL with Y99H, F101L
notes: as for B1
B20: 3A21 (antibody, V domains shown)
VH: EVQLQQSGAELVRPGASVKLSCTASGFNIKDDYMHWVKQRPEQGLEWIGLIDPENGYAEYASKFQGKATITADTSSNTANLQLNSLTSEDTAVYYCTTWGLLRNYVMDYWGQGTSVTVSS
VL: DIVMTQAAFSNPVTLGTSASISCSSSKSLLHSNGITYLYWYLQRPGQSPQLLIYRMSNLASGVPDRFSGSGSGTDFTLRVNRVEADDVGVYYCAQMLERPRTFGGGTKLEIK
notes: as for B1
B21: 10B08 (antibody, V domains shown)
VH: QLQQSGTELVRPGASVKLSCTSSGFNIKDDFMHWVKQRPEQGLEWIGWIDPENGATAYASKFQGKATITADTSSNTAYLQLSSLTSEDTAVYYCTTFGDYYGGRKDYWGQGTTLTVSS
VL: B20 VL with R79G, V80I, N81S, D86E
notes: as for B1
B22: 9E17 (antibody, V domains shown)
VH: QLQQSGAEFVRPGASVKLSCTASGFNIKDDYIHWVKQRPEQGLEWIGRIDPANGYTEYAPKFQGKATITSDTSSNTAYLQLSSLTSEDTAVFYCVWHWDYWGQGTTLTVSS
VL: B20 VL with S26Y, L30Q, S32N, Y41F, Q50H, V80I, N81S, D86E, R101F, G105T
notes: as for B1

Molecular target: T1, Human CD53-CHO (full-length human CD53 …)
Test: flow cytometry on CD53-CHO cells, anti-mouse IgG AF647 gMFI, 4-parameter fit
Description: Binding of anti-human CD53 antibodies was determined by flow cytometry for their ability to bind human CD53-CHO cells compared to parental CHO-K1 cells. All assay steps were performed in FACS buffer (phosphate buffered saline pH 7.4 supplemented with 2% fetal bovine serum). Twenty thousand cells were seeded in 384-well plates and washed twice with ice cold buffer. Cells were incubated with purified antibodies titrated 3-fold from 200 nM to 0.09 nM at 4° C. for 1 hour with gentle agitation, then washed twice with FACS buffer and incubated with anti-mouse IgG Alexa Fluor® 647 and incubated at 4° C. for 40 minutes. Cells were washed twice and resuspended in FACS buffer. Analysis was preformed on the IntelliCyt® iQue Screener and gMFI values for Alexa Fluor® 647 were generated. EC50 values were determined in GraphPad Prism8. Concentration was transformed from nM to Log 10 nM and curves were fit with a nonlinear regression of log(agonist) vs. response−Variable slope (four parameters) or Y=Bottom+(Top−Bottom)/(1+10\hat{ }((LogEC50−X)*HillSlope)). EC50 values for all anti-human CD53 antibodies can be found in Table 6, and representative binding curves can be found in FIG. 7. Binding to CD53-CHO is represented by closed symbols and binding to parental CHO-K1 cells is represented by open symbols.

Binder	EC50
B1	~8 nM
B2	36 nM
B3	82.5 nM
B4	2.7 nM
B5	~23 nM
B6	9.1 nM
B7	2.5 nM
B8	11.1 nM
B9	~2 nM
B10	~2 nM
B11	~3 nM
B12	25.4 nM
B13	4.6 nM
B14	~8 nM
B15	5.6 nM
B16	~0.3 nM
B17	~3 nM
B18	~2 nM
B19	8.1 nM
B20	2.1 nM
B21	3.1 nM
B22	2.1 nM
